In the supplement of paper PMC7125110:
± gives the standard error. Fewer inactive variants are shown than the library holds.

B1: glmS ribozyme (parent)
chain: AUAAAAGCGCCAGAACUACAGAAAUGUAGUUGACGAGGAGGAGGUUUAUCGAAUUUUCGGCGGAUGCCUCCAAA

What was measured:
Details in all cases: with glucosamine-6-phosphate
glucosamine-6-phosphate [1] = variants of: B1; experiment: self-cleavage kobs at 160 uM GlcN6P; higher = faster cleavage; RNA array
Procedure, shortened: (§1)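 Barcoded ribozyme variants were transcribed in situ on sequenced MiSeq chips by E. coli RNA polymerase. At 37 °C, a hybridised Cy3 probe tracked them while glucosamine-6-phosphate (40 μM to 10 mM) in HEPES/KCl/Mg(OAc)2 buffer flowed in and tiles were imaged over ~14 h. Per-tile medians of signals normalised to baseline and to non-cleaving reference variants were fit to one- or two-exponential decays, giving kobs. kcat and KM came from weighted Michaelis–Menten fits across concentrations.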

glucosamine-6-phosphate [2] = variants of: B1; experiment: self-cleavage kobs at 2500 uM GlcN6P; higher = faster cleavage; RNA array
Procedure, shortened: as §1

glucosamine-6-phosphate [3] = variants of: B1; experiment: self-cleavage kobs at 640 uM GlcN6P; higher = faster cleavage; RNA array
Procedure, shortened: as §1

glucosamine-6-phosphate [4] = variants of: B1; experiment: self-cleavage kobs at 10000 uM GlcN6P; higher = faster cleavage; RNA array
Procedure, shortened: as §1

| Variant | self-cleavage kobs at 160 uM GlcN6P (glucosamine-6-phosphate [1]) | self-cleavage kobs at 2500 uM GlcN6P (glucosamine-6-phosphate [2]) | self-cleavage kobs at 640 uM GlcN6P (glucosamine-6-phosphate [3]) | self-cleavage kobs at 10000 uM GlcN6P (glucosamine-6-phosphate [4]) |
| --- | --- | --- | --- | --- |
| AUAAAAGCGCCAGAACUACAGAAAUGUAGUUGACGAGGAGGAGGUUUAUAGAAUUUUCGGCGGAUGUCCCCAAA [C50A C67U U69C] | 5.97e-05 ± 1.8e-05 s⁻¹ | 0.000119 ± 3.2e-05 s⁻¹ | – | – |
| AUAAAAGCGCCAGAACUACAGAAAUGUAGUUGACGAGGAGGAGGUUUCUCGAAUUUUCGGCGGAUGCCACCAAA [A48C U69A] | < 1e-05 s⁻¹ | – | < 1e-05 s⁻¹ | – |
| AUAAAAGCGCCAGAACUACAGAAAUGUAGUUGACGAGGAGGAGGUUUAUAGAAUUUUCGGCGGAUACCUGCAAA [C50A G66A C70G] | 5.52e-05 ± 2.4e-05 s⁻¹ | 0.000169 ± 4.8e-05 s⁻¹ | 0.000243 ± 6.1e-05 s⁻¹ | – |
| AUAAAAGCGCCAGAACUACAGAAAUGUAGUUGACGAGGAGGAGGUUUAACGUAUUUUCGGCGGAUGCCUCCAAA [U49A A52U] | < 1e-05 s⁻¹ | < 1e-05 s⁻¹ | < 1e-05 s⁻¹ | < 1e-05 s⁻¹ |
| AUAAAAGCGCCAGAACUACAGAAAUGUAGUUGACGAGGAGGAGGUUGAGCAAAUUUUCGGCUGAUGCCUCCAAA [U47G U49G G51A G62U] | < 1e-05 s⁻¹ | < 1e-05 s⁻¹ | < 1e-05 s⁻¹ | – |
| AUAAAAGCGCCAGAACUACAGAAAUGUAGUUGACGAGGAGGAGGUUUUUCGAAUUUUCGUCGGAUGCUUCCAAA [A48U G60U C68U] | < 1e-05 s⁻¹ | < 1e-05 s⁻¹ | – | – |
| AUAAAAGCGCCAGAACUACAGAAAUGUAGUUGACGAGGAGGAGGUCUAUCGAAAUUUCGGCGGAUGCCUCCAAA [U46C U54A] | 0.000326 ± 8.6e-05 s⁻¹ | – | 0.00148 ± 0.00038 s⁻¹ | – |
| AUAAAAGCGCCAGAACUACAGAAAUGUAGUUGACGAGGAGGAGGUUUUCCGAAUUUUCGGCGGUUGCCUUCAAA [A48U U49C A64U C70U] | < 1e-05 s⁻¹ | – | < 1e-05 s⁻¹ | – |
| AUAAAAGCGCCAGAACUACAGAAAUGUAGUUGACGAGGAGGAGGUGUAUCGAAUUUGCGGCGGAUGCCUCCAAA [U46G U57G] | < 1e-05 s⁻¹ | – | < 1e-05 s⁻¹ | – |
| AUAAAAGCGCCAGAACUACAGAAAUGUAGUUGACGAGGAGGAGGGUUAUGGAAUUUUCGGCGGAUGCCUCUAAA [U45G C50G C71U] | < 1e-05 s⁻¹ | – | – | – |
| AUAAAAGCGCCAGAACUACAGAAAUGUAGUUGACGAGGAGGAGGUUGAUUGAAUUUUCGGCGCAUGCCUCCAAA [U47G C50U G63C] | < 1e-05 s⁻¹ | – | < 1e-05 s⁻¹ | – |
| AUAAAAGCGCCAGAACUACAGAAAUGUAGUUGACGAGGAGGAGGUUUAUGGGAUUUUCGGCGGAUGUCUCCAAA [C50G A52G C67U] | 0.000143 ± 5.1e-05 s⁻¹ | 7.71e-05 ± 2.8e-05 s⁻¹ | 0.000875 ± 0.00027 s⁻¹ | – |
| AUAAAAGCGCCAGAACUACAGAAAUGUAGUUGACGAGGAGGAGGUAUAUCGAAUUUUCGGCGGAGGCCUCCAAA [U46A U65G] | 0.000293 ± 6.7e-05 s⁻¹ | 0.00122 ± 0.00021 s⁻¹ | 0.000975 ± 0.00016 s⁻¹ | 0.00301 ± 0.00058 s⁻¹ |
| AUAAAAGCGCCAGAACUACAGAAAUGUAGUUGACGAGGAGGAGGUUAAUCGAAUUUUCGGCGGAAGCCUCCAAA [U47A U65A] | 0.000347 ± 7.5e-05 s⁻¹ | 0.00331 ± 0.00064 s⁻¹ | 0.00132 ± 0.00027 s⁻¹ | – |
| AUAAAAGCGCCAGAACUACAGAAAUGUAGUUGACGAGGAGGAGGCUUAUCGAUUUUUCGGCGGAUGCCCCCAAA [U45C A53U U69C] | 9.96e-05 ± 2.7e-05 s⁻¹ | 0.000752 ± 0.00022 s⁻¹ | 0.000489 ± 0.00012 s⁻¹ | – |
| AUAAAAGCGCCAGAACUACAGAAAUGUAGUUGACGAGGAGGAGGUGUAUCGAUUUUUCGGCGGAGGCCUCCAAA [U46G A53U U65G] | 4.57e-05 ± 1.6e-05 s⁻¹ | 0.000976 ± 0.00018 s⁻¹ | 0.000379 ± 9.9e-05 s⁻¹ | – |
| AUAAAAGCGCCAGAACUACAGAAAUGUAGUUGACGAGGAGGAGGUUUGUAGAAUUUUCGGGGGAUGAUUCCAAA [A48G C50A C61G C67A C68U] | 8.22e-05 ± 2.2e-05 s⁻¹ | 9.85e-05 ± 2.5e-05 s⁻¹ | 8.1e-05 ± 3.2e-05 s⁻¹ | – |
| AUAAAAGCGCCAGAACUACAGAAAUGUAGUUGACGAGGAGGAGGUUUGUCGAAUUUUCGGCCGAUGCCUCCAAA [A48G G62C] | < 1e-05 s⁻¹ | – | – | < 1e-05 s⁻¹ |
| AUAAAAGCGCCAGAACUACAGAAAUGUAGUUGACGAGGAGGAGGGUUAUCGAAUUUUCGGUGAACGCCUCCAAA [U45G C61U G63A U65C] | < 1e-05 s⁻¹ | < 1e-05 s⁻¹ | < 1e-05 s⁻¹ | – |
| AUAAAAGCGCCAGAACUACAGAAAUGUAGUUGACGAGGAGGAGGUUUAUAGAAGUUUCGGCGGAUGGCUCCAAA [C50A U54G C67G] | 0.000319 ± 0.00012 s⁻¹ | 0.000101 ± 4.6e-05 s⁻¹ | 0.000125 ± 4.8e-05 s⁻¹ | – |
| AUAAAAGCGCCAGAACUACAGAAAUGUAGUUGACGAGGAGGAGGUUUACCGAGUUUUCGGCGGAUGCCUCCAAA [U49C A53G] | < 1e-05 s⁻¹ | – | < 1e-05 s⁻¹ | < 1e-05 s⁻¹ |
| AUAAAAGCGCCAGAACUACAGAAAUGUAGUUGACGAGGAGGAGGUUUCUCGAAUUUUCGGGGGAUGCCUCCAAA [A48C C61G] | < 1e-05 s⁻¹ | < 1e-05 s⁻¹ | < 1e-05 s⁻¹ | < 1e-05 s⁻¹ |
| AUAAAAGCGCCAGAACUACAGAAAUGUAGUUGACGAGGAGGAGGUUUAACGAAUUCUCGGCGGUUGCCUCCAAA [U49A U56C A64U] | < 1e-05 s⁻¹ | < 1e-05 s⁻¹ | < 1e-05 s⁻¹ | – |
| AUAAAAGCGCCAGAACUACAGAAAUGUAGUUGACGAGGAGGAGGUUUCUCCAAUUUUCGGCGGAUGCCUCCAAA [A48C G51C] | < 1e-05 s⁻¹ | – | < 1e-05 s⁻¹ | – |
| AUAAAAGCGCCAGAACUACAGAAAUGUAGUUGACGAGGAGGAGGGUUAUCGAAUUUUGAGCGGAUGCCUCCAAA [U45G C58G G59A] | < 1e-05 s⁻¹ | < 1e-05 s⁻¹ | – | – |
| AUAAAAGCGCCAGAACUACAGAAAUGUAGUUGACGAGGAGGAGGGUUAUCGAAUUUUCGGCGGAUACCUCCAAA [U45G G66A] | 0.0029 ± 0.00042 s⁻¹ | 0.0257 ± 0.0093 s⁻¹ | 0.00605 ± 0.0014 s⁻¹ | – |
| AUAAAAGCGCCAGAACUACAGAAAUGUAGUUGACGAGGAGGAGGUUUAUAGAAUUUGCGGCGGACGCCUGCAAA [C50A U57G U65C C70G] | 8.04e-05 ± 2.6e-05 s⁻¹ | 0.000108 ± 3.5e-05 s⁻¹ | 0.000128 ± 3.7e-05 s⁻¹ | 3.25e-05 ± 1.6e-05 s⁻¹ |
| AUAAAAGCGCCAGAACUACAGAAAUGUAGUUGACGAGGAGGAGGUGUAUCGAAUUUUCGGCGGUUGCCUCCAAA [U46G A64U] | < 1e-05 s⁻¹ | – | – | – |
| AUAAAAGCGCCAGAACUACAGAAAUGUAGUUGACGAGGAGGAGGUUUAUAGAAUUUUCGGCGAAUGCCUCCAAA [C50A G63A] | < 1e-05 s⁻¹ | – | – | < 1e-05 s⁻¹ |
